From US20160207996A1 (ARGEN X N V, published 2016) come the findings set out here.

The target in test [1] is T1, Nt-GCGR-hFc (human, UniProt P47871 26-136).
T1 construct: domain: N-terminal domain; also called Nt-GCGR-Fc; recombinant N-terminal domain of GCGR; not shown: hFc
As to the kind of experiment: ELISA with a titration of biotin-Nt-GCGR (x axis) against the mAbs, OD620.

Test [2] deals with human Nav1.7 (full length) (human) (UniProt Q15858). As to the kind of experiment: cell-based or functional assay.
Test [3] concerns the target T2, hNav1.7-loopB1-C1-D1-llama Fc (human).
T2 construct: whole entry: loops B1, C1, D1 joined by linkers, llama Fc; also called hNav1.7-loopB1-C1-D1-llfc
T2 chain: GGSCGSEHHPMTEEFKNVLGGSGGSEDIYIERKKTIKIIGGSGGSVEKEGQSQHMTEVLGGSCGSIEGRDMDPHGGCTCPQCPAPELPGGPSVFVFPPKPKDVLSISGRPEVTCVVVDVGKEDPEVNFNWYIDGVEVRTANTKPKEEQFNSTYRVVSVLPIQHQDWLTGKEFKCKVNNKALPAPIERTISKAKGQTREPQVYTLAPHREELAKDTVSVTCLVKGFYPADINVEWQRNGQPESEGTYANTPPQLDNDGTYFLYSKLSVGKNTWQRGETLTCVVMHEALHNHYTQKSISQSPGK
As to the kind of experiment: ELISA, coated loop-B1-C1-D1-llama Fc 20 ng/well, mAb titrated. The protocol:
mAbs originating from the loopA3-llama Fc immunization were assayed for their affinity for hNav1.7-loopA3. Therefore, a Maxisorp plate was coated with 10 ng/well of loopA3-llamaFc chimera and incubated overnight at 4° C. The next day, the plate was blocked with PBS+1% casein for 2 hours at RT. Subsequently a concentration gradient of antibodies was applied (range 0.25 pM-66 nM) for another hour. Antibody binding to loopA3 was detected using a HRP-conjugated anti-human Fc antibody (Abcam, Ab7499) (incubation 1 hour at RT, dilution 1/5000 in PBS+0.1% casein), followed by TMB addition and OD620 nm measurement. EC50 values were determined using GraphPad Prism software. For comparison purposes a known hNav1.7-loopA3 binding monoclonal antibody, UCB_932 (US2011/0135662), was tested.
In a next experiment, the binding affinity of the loop-specific mAbs was determined and compared to reference mAbs as described in US2011/0135662 (for loop A3: UCB_932, for loopB1-C1-D1: UCB_983, for loopC3: UCB_1066; US2011/0135662). Affinities were determined using an ELISA with a loop-coating of 10 ng/well (loopA3-llama Fc), 20 ng/well (loop-B1-C1-D1-llama Fc) or 50 ng/well (loopC3-llama Fc). The remainder of the experimental setup was identical to abovementioned binding ELISAs. Most of the mAbs show pM affinity for the respective hNav1.7 extracellular loop they are binding. […] The EC₅₀ for the reference mAbs could not be determined (nd) from the ELISA data available because the binding was too weak.

The next test concerns the target T3, hNav1.5-B1-C1-D1-llFc (human).
T3 construct: also called Nav1.5 extracellular loop B1-C1-D1 llamaFc chimera
T3 chain: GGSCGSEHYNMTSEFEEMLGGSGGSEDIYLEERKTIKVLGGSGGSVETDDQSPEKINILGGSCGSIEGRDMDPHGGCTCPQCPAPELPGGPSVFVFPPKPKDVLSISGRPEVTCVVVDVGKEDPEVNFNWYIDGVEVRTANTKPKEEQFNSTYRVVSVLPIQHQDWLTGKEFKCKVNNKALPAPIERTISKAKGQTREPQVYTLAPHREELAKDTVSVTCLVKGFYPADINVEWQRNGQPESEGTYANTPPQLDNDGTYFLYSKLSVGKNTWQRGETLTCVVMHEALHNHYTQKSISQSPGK
As to the kind of experiment: binding ELISA; the panel prints no target, by paragraph 288 and paragraph 555 the coated hNav1.5 loop B1-C1-D1-llama Fc. From the text:
The therapeutic potency of an anti-hNav1.7 antibody will highly depend on the lack of binding to other Nay family members. Of particular interest is hNav1.5, which is expressed on cardiac muscle cells. As such, cross-reactive binding of hNav1.7 antibodies to hNav1.5 could lead to heart failure. To assay the specificity of the mAbs derived from DNA immunization for hNav1.7, the corresponding loopA3 and loopB1-C1-D1 sequences of hNav1.5 were cloned as llamaFc chimera and cross-reactivity was determined using a binding ELISA (FIG. 8). All clones, except clone 9A6 and 9H4, show no cross-reactivity to hNav1.5. In addition, cross reactivity for hNav1.2 was tested for the loopA3-binding clones 8A7 and 8B6 using hNav1.2 and hNav1.7 derived monomeric, GST-tagged loopA3 peptides (Abnova, H00006326-Q01 (hNav1.2) and H00006335-Q01 (hNav1.7)). Again, no cross-reactive binding was observed.
For orientation: An ELISA detects its analyte on a solid surface through an enzyme-linked reagent.

For a further test, the target named is T4, RatB1-C1-D1-llFc (rat).
T4 construct: also called rat Nav1.7 loopB1-C1-D1 llamaFc chimera
T4 chain: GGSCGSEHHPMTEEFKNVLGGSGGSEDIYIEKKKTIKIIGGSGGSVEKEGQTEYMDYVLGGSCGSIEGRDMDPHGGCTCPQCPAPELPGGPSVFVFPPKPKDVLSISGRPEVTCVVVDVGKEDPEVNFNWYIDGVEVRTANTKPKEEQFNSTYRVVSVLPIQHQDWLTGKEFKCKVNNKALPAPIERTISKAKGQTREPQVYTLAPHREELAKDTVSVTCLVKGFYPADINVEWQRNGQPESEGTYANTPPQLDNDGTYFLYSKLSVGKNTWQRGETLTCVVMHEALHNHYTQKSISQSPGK
As to the kind of experiment: binding ELISA; the panel prints no target, by paragraph 562 the coated rat loop B1-C1-D1-llama Fc.

Test [4] deals with T5, hNav1.7-loopA3-llama Fc fusion (human).
T5 construct: also called hNav1.7-loopA3-llFc; loopA3-llamaFc chimera
T5 chain: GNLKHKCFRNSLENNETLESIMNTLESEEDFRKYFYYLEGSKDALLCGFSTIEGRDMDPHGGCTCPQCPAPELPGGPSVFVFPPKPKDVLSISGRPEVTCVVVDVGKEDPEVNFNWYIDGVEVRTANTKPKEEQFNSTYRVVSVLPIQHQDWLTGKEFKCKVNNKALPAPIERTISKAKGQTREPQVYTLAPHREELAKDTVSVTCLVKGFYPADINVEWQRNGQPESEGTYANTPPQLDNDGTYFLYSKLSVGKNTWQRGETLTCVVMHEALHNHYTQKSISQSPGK
As to the kind of experiment: binding ELISA on coated loop-llama Fc chimera (20 ng/well), OD620. How it is done:
(§1) For all DNA-immunization derived mAbs the binding affinity for the various hNav1.7-loop-llama Fc chimeras was tested in a binding ELISA. Therefore, a Maxisorp plate (Nunc) was coated with 20 ng/well of hNav1.7-loopA3-llama Fc, hNav1.7-loopB1-C1-D1-llama Fc or hNav1.7-loopC3-llama Fc. Remainder of the ELISA setup is as described above. […] Only at very high concentration minor cross-reactivity is observed for some clones.

The target in a further test is T6, hNav1.7-loopC3-llama Fc (human).
T6 construct: whole entry: loop C3, linker, llama Fc; also called hNav1.7-loopC3-llfc
T6 chain: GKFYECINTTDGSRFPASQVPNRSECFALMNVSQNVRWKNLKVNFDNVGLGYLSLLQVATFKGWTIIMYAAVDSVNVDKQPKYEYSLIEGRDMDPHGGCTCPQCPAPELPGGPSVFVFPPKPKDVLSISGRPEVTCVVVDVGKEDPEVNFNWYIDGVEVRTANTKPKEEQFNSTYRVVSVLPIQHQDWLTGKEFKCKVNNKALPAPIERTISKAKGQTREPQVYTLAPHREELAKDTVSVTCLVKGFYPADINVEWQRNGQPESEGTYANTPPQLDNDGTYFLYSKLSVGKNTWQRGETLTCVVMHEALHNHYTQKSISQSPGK
The test is described as above. The protocol:
as §1

Test [5] deals with T1, Nt-GCGR-hFc. As to the kind of experiment: mAb binding ELISA on coated Nt-GCGR-hFc. How it is done:
Binding to GCGR- and CXCR4-lipoparticles (negative control) (A) and binding to Nt-GCGR-hFc (B). Lipoparticles were coated at 10 U/well. Nt-GCGR was coated at 1 μg/ml. mAbs were allowed to bind to the coated target at 1 μg/ml.

T1 sequence (P47871 26-136): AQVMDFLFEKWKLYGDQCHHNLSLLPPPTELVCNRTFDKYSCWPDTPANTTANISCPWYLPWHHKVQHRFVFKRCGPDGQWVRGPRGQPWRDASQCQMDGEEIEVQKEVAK

B1: mAb 6A5 (antibody, IgG1, V domains shown)
VH: EVQLQESGGGSVQPGGSLRLSCAASGFTFSANAMTWVRQAPGKGLEWVSAISGTGASTSYADSVKGRFTVSRDNAKNTLYLQVNNLKPEDTAVYRCAKLGGDTWYMEYWAKGTLVTVSS
VL: SYELTQSPSVSVALRQTAKITCGGDNIGSKYVNWYQQKPSQTPVLVIYKDSNRPSGIPERFSGSNSGNTAALTISGAQAEDEADYYCQVWDGSAAVFGGGTHLSVLG
Take B1: the binding result with Nt-GCGR-hFc [1] is recorded as “no binding (tested: about 20 ng/ml biotin-Nt-GCGR)”.

B2: 9H4 (antibody, human IgG1, V domains shown)
VH: EVQLVQPGAELRNPGASVKVSCKASGYIFTSAYIDWVRQAPGQGLEWMGRIDPEDGETRYAHQFRDRVTFTADTSTSTVYAELNSLRSEDTAVYYCAITIEGFWGQGTQVTVSS
VL: ATMLTQSPGSLSVVPGESASISCKTSRSLVHSDGKTYLSWLLQKPGQSPQRLIYQVSNRGSGVPDRFTGSGSGTDFTLKISGVKAEDAGVYYCAQATYYPLSFGSGTRVEIK
As usually defined, the EC50 is the concentration giving half of the maximal effect. Low readings indicate higher potency in that assay, high ones lower potency in that assay. On to B2, for which the % inhibition of inward current following P02 voltage protocol, 10 µg/ml in test [2] was 3.8%. In addition, the % inhibition of inward current following P02 voltage protocol, 25 µg/ml in test [2] was determined as 19.8%. In test [2], this molecule yielded a % inhibition of inward current following P02 voltage protocol, 100 µg/ml of 23.9%. The molecule further yielded an EC50 in test [3] of 0.19 nM. Besides, the binding result (in the test with hNav1.5-B1-C1-D1-llFc; in the test with RatB1-C1-D1-llFc; in test [4]; with hNav1.7-loopC3-llama Fc) was “binds” throughout.

B3: mAb 6B7 (antibody, IgG1, V domains shown)
VH: QLQLVESGGGLVQPGGSLRLSCAASGFTFSSNAMTWVRQAPGKGLEWVSAISSTGNSITEADSVKGRFTISRDNAKNMLYLQMNSLKPEDTAVYYCAKLGGDTWYMEYWGQGTQVTVSS
VL: SSALTQPSAVSVSLGQTARITCQGDNFGSIDPHWYQQKPGQDPVVVIYQYNNRPSGIPERFSGLKSGNTATLIISGAQAEDEADYYCQLWDSRAKAVFGGGTHLTVLG
As for B3, the binding result with Nt-GCGR-hFc [5] was “no binding (tested: 1 µg/ml)”.

B4: mAb 6D8 (antibody, IgG1, V domains shown)
VH: QLQLVESGGGLVQPGGSLRLSCAASGFTFSSNAMTWVRQAPGKGLEWVSAISSTGNSITEADSVKGRFTISRDNAKNMLYLQMNSLKPEDTAVYYCAKLGGDTWYMEYWGQGTQVTVSS
VL: SYELTQSPSVSVALRQTAKITCGGNGIGSKIVHWYQQKPGQAPVLVIYADVRRPSEIPERFSGSNSGDTATLTVSGAQAEDEADYYCQVWDSSANAAVFGGGTHLTVLG
With B4, the binding result in the test with Nt-GCGR-hFc [5] is “no binding (tested: 1 µg/ml)”.
